Test results as given in US20240075137A1.

What was measured:
[1] = target: mouse PVRIG on cells (mouse); assay: FACS titration, D10.G4.1 cells
[2] = target: mouse PVRIG on cells (mouse); assay: FACS, HEK293 mPVRIG over-expressing vs empty vector cells, 10 ug/ml
[3] = target: mouse PVRIG on cells (mouse); assay: FACS, D10.G4.1 cells vs isotype
[4] = target: mouse PVRIG-Fc fusion protein (mouse); assay: blocking of mPVRIG-Fc (029-Fc) binding to mPVRL2 over-expressing cells
[5] = target: mouse PVRIG on cells (mouse); assay: FACS, NK cells, 10 ug/ml vs isotype
[6] = target: mouse PVRIG on cells (mouse); assay: FACS titration, HEK293 mPVRIG over-expressing cells

B1: AB-407 (antibody, V domains shown)
VH: QVQLQQSGAELAKPGSSVMISCKASGYTFTNYAVHWIKQTTGQALEWTGYIAPGSGVTKYNEKFKGKATLTVDKSSTTAYMQLSSLTPVDTAVYYCASGTTRFAYWGQGTLVTVSS
VL: DIVLTQSPALAVSLGQRATISCRASQSVSLSSYNLMQWYQQKPGQEPKILIYDASNLPSGIPARFSGSGSGTDFTLTIDPVQADDIATYYCQQSKDDPLTFGSGTKLEIK
Work on B1 yielded a Kd [1] of 1.32 nM, an MFIr (HEK OX/EV) [2] of 50 and an MFIr on D10.G4.1 (Ab/Iso) [3] of 8. It also gave a % R-L blocking [4] of 95%, an IC50 [4] of 3.99 nM and an MFIr on NK cells (Ab/Iso) [5] of 2.8. The Kd [6] was 0.334 nM.
